This is an account of results in patent publication US20150368613.

The test system of the series is Meis1.

With MYC-CUL4A, the “steady-state levels (immunoblot)” value is given as “the HOX co-factor Meis1 was not subjected to CUL4A-mediated degradation”.
